Measured values reported in publication PMC6327110, “Species-Specific Functional Regions of the Green Alga Gamete Fusion Protein HAP2 Revealed by Structural Studies” (Structure(London, England:1993), 2019).
Several values for one entry are separate records, joined by “and”; a condition that tells them apart may be missing. Equal values may be shown once.

Molecular target: the molecule itself
Experiment: crystal structure; crystals grown from the HAP2-scFv A20 complex, sitting drop, 293K, 0.2M LiSO4, 0.1M Tris-HCl pH 8.5, 25% w/v PEG 5000 MME; space group P6_(3)22, 2.6 Å; no density for the scFv

B1: Chlamydomonas reinhardtii HAP2 ectodomain (residues 23-592) (domain or fragment)
chain: EVIASGRLEKCVVDGVTEELDCQEKVVVTLTVGNGQSLQTEALEFSLSCLNSPDGRCPCSCSAADPTCACRDLAAPLRVSLTKSPLWASYPLQYLSSFNWKPLEVILRPSNKVCKDGDWEDSPTCGWFSQGGVRVADSQGFCCECSSSQVWDDTFGSSKERTRANLDCDFWSDPLDILIGRKPVSAHCLTFDPQWYSGYELGAASLQFEIAITVEVPTAPSPTTATTSATPRTNNSSSANSTNSTNSPAPQFLSPPAPSTREVLHLGPSVPLASSASRLLSAKLLGDLAMYTQLPAISNQVLMVPQPPAAAAATGSPLDATLATNRSAWMLLDKTMLSMDGLACDKVGTGFSAFRYQPSGCGRAPQACLSGQLKDLWEADLARIADGRVPLYMITRFTGGSDTTLQSFSGGPLSFALPVTSHSQSLVTLSVAADGVRLVTNRSPGKITGAAVCRFAGTSCGGFEAVAARGYIYVNITNTGRLDSDYTLTVSNCSSNVRPIEARTLAVRAGSAASLDPPMELYVEDQAAAAARTCTVSLYDSVGAVTDSLTLSFYTNATQLVVKPSGGYNGDDDDK
modifications: N-linked glycan attached to Asn578; further N-linked glycans marked in Figure 1C
notes: HAP2, Chlamydomonas reinhardtii, Uniprot A4GRC6, soluble C-terminally truncated ectodomain, residues 23-592, ending at G592; enterokinase cleavage site immediately downstream of HAP2 G592, before the double strep-tag; Secreted from the vector pMT/BiP/TwinStrep; The strep tag was removed with enterokinase; Trimer in the crystal; trimers, hexamers and remaining monomers in solution; also called …
For B1, the “stoichiometry N” value was 3 and 6.
